The record followed here is the supplement of paper PMC7877785.

± gives the uncertainty stated by the source.

The data set in a line: self-splicing fitness, log relative to wild type (ln ratio); higher = more splicing; Tetrahymena group I intron in knt gene, E. coli kanamycin selection, DiMSum; sequences stand for … in CUCUCU…GGAGGGAAAAGUUAUCAGGCAUGCACCUGGUAGCUAGUCUUUAAACCAAUAGAUUGCAUCGGUUUAAAAGGCAAGACCGUCAAAUUGCGGGAAAGGGGUCAACAGCCGUUCAGUACCAAGUCUCAGGGGAAACUUUGAGAUGGCCUUGCAAAGGGUAUGGUAAUAAGCUGACGGACAUGGUCCUAACCACGCAGCCAAGUCCUAAGUCAACAGAUCUUCUGUUGAUAUGGAUGCAGUUCACAGACUAAAUGUCGGUCGGGGAAGAUGUAUUCUUCUCAUAAGAUAUAGUCGGACCUCUCCUUAAUGGGAGCUAGCGGAUGAAGUGAUGCAACACUGGAGCCGCUGGGAACUAAUUUGUAUGCGAAAGUAUAUUGAUUAGUUUUGGAGUACUCGUGGUCG
The procedure, abridged:
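The eight P1ex-region nucleotides of an intron in the knt kanamycin-resistance gene on pET-22b(+) were all randomised and the library put into E. coli BL21(DE3). Six replicate transformations were grown overnight at 37°C or 30°C on LB agar with or without 25 μg/mL kanamycin, together with 100 μg/mL carbenicillin, 50 μM IPTG and 0.2% rhamnose. Colonies were pooled and amplicon-sequenced on an Illumina HiSeq 2500. Fitness from DiMSum is the error-weighted combination of wild-type-normalised replicate fold changes, kanamycin over none.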

Take GGCAAGCAAUAUUACGGUUA: the “self-splicing fitness (ln)” value (30 °C) was -0.0834 ± 0.075 and the “self-splicing fitness (ln)” value (37 °C) was determined as 0.577 ± 0.074.
For GGCAAGCAAUAUUACGUAUU, in that order: -0.415 ± 0.06 and -0.183 ± 0.074.
For GGCAAGCAAUAUUACGUCAG the same measures were -4.5 ± 0.34 and -2.4 ± 0.26.
With GGCAAGCAAUAUUACGUCCA, the “self-splicing fitness (ln)” value (30 °C) is -1.83 ± 0.22 and the “self-splicing fitness (ln)” value (37 °C) is -0.175 ± 0.18.
For GGCAAGCAAUAUUACGUCUU the same measures were -0.676 ± 0.066 and -0.385 ± 0.071.
For GGCCAGCAAUAUUACGACUA the same measures were -0.921 ± 0.1 and -0.322 ± 0.1.
For GGCCAGCAAUAUUACGAGAG, the “self-splicing fitness (ln)” value (30 °C) is -3.27 ± 0.24 and the “self-splicing fitness (ln)” value (37 °C) was -2.52 ± 0.25.
For GGCCAGCAAUAUUACGCCGG, in that order: -3.21 ± 0.17 and -1.99 ± 0.23.
GGCCAGCAAUAUUACGCGAG: the “self-splicing fitness (ln)” value (37 °C) is -2.98 ± 0.35.
As to GGCCAGCAAUAUUACGCUCU, the “self-splicing fitness (ln)” value (30 °C) was -0.639 ± 0.12 and the “self-splicing fitness (ln)” value (37 °C) is -0.0247 ± 0.17.
For GGCCAGCAAUAUUACGCUUG the same measures were -4.13 ± 0.26 and -2.58 ± 0.2.
For GGCCAGCAAUAUUACGGAAU, in that order: -0.615 ± 0.057 and -0.0748 ± 0.068.
On to GGCCAGCAAUAUUACGGGCA, for which the “self-splicing fitness (ln)” value is -1.06 ± 0.07 (30 °C) and -0.314 ± 0.079 (37 °C).
For GGCCAGCAAUAUUACGGGUA, in that order: -0.772 ± 0.064 and -0.783 ± 0.071.
As to GGCCAGCAAUAUUACGGUAG, the “self-splicing fitness (ln)” value by setting is: (30 °C) -0.883 ± 0.063; (37 °C) 0.303 ± 0.083.
For GGCCAGCAAUAUUACGGUCG the same measures were -1.2 ± 0.14 and 0.113 ± 0.14.
For GGCCAGCAAUAUUACGUAGU the same measures were -2.25 ± 0.12 and -2.13 ± 0.12.
For GGCCAGCAAUAUUACGUCCA, in that order: -1.61 ± 0.17 and -0.128 ± 0.15.
With GGCCAGCAAUAUUACGUCGG, the “self-splicing fitness (ln)” value is -3.69 ± 0.26 (30 °C) and -1.9 ± 0.24 (37 °C).
For GGCCAGCAAUAUUACGUGAA the same measures were -1.67 ± 0.066 and -0.271 ± 0.077.
For GGCCAGCAAUAUUACGUGUG, in that order: -1.15 ± 0.051 and -0.323 ± 0.066.
For GGCCAGCAAUAUUACGUUCC the same measures were -1.28 ± 0.14 and 0.125 ± 0.18.
For GGCGAGCAAUAUUACGAACU, the “self-splicing fitness (ln)” value was -1.3 ± 0.16 (30 °C) and 0.292 ± 0.18 (37 °C).
For GGCGAGCAAUAUUACGAAGG, in that order: -3.8 ± 0.27 and -2.88 ± 0.4.
For GGCGAGCAAUAUUACGAGGC the same measures were -3.5 ± 0.23 and -3.02 ± 0.27.
For GGCGAGCAAUAUUACGAUUC, in that order: -0.495 ± 0.1 and 0.463 ± 0.14.
On to GGCGAGCAAUAUUACGCAAG, for which the “self-splicing fitness (ln)” value (30 °C) is -2.96 ± 0.34 and the “self-splicing fitness (ln)” value (37 °C) is -2.3 ± 0.24.
For the sequence GGCGAGCAAUAUUACGCCAA, the “self-splicing fitness (ln)” value (37 °C) was -2.45 ± 0.49.
As to GGCGAGCAAUAUUACGCCGU, the “self-splicing fitness (ln)” value was -3.44 ± 0.47 (30 °C) and -1.28 ± 0.45 (37 °C).
Turning to GGCGAGCAAUAUUACGCCUA, the “self-splicing fitness (ln)” value (37 °C) was -1.76 ± 0.23.
For GGCGAGCAAUAUUACGCUGG, the “self-splicing fitness (ln)” value (30 °C) is -1.39 ± 0.36.
For the sequence GGCGAGCAAUAUUACGCUGU, the “self-splicing fitness (ln)” value by setting is: (30 °C) -2.63 ± 0.22; (37 °C) -2.66 ± 0.27.
For GGCGAGCAAUAUUACGGAUU the same measures were -1.21 ± 0.17 and -1.06 ± 0.24.
For GGCGAGCAAUAUUACGGCAA the same measures were -0.896 ± 0.19 and -0.442 ± 0.2.
For GGCGAGCAAUAUUACGGGGA, the “self-splicing fitness (ln)” value was -2.39 ± 0.2 (30 °C) and -2.29 ± 0.29 (37 °C).
For GGCGAGCAAUAUUACGGGGC the same measures were -3.65 ± 0.29 and -2.96 ± 0.34.
For GGCGAGCAAUAUUACGGUAA, in that order: -2.66 ± 0.16 and -1.77 ± 0.2.
For GGCGAGCAAUAUUACGGUAC the same measures were -2.08 ± 0.17 and -1.98 ± 0.19.
With GGCGAGCAAUAUUACGUAGA, the “self-splicing fitness (ln)” value was -2.07 ± 0.093 (30 °C) and -1.27 ± 0.12 (37 °C).
For GGCGAGCAAUAUUACGUCAA the same measures were -3.73 ± 0.34 and -1.71 ± 0.15.
Regarding GGCGAGCAAUAUUACGUCUU, the “self-splicing fitness (ln)” value was -0.851 ± 0.047 (30 °C) and -0.197 ± 0.06 (37 °C).
As for GGCGAGCAAUAUUACGUGUA, the “self-splicing fitness (ln)” value reads like this: (30 °C) -2.41 ± 0.15; (37 °C) -1.16 ± 0.14.
GGCUAGCAAUAUUACGAAGA: the “self-splicing fitness (ln)” value was -2.05 ± 0.43 (30 °C) and -0.778 ± 0.36 (37 °C).
For GGCUAGCAAUAUUACGACAG the same measures were -2.88 ± 0.35 and -1.85 ± 0.34.
For GGCUAGCAAUAUUACGACAU the same measures were -0.413 ± 0.013 and 0.0789 ± 0.033.
Take GGCUAGCAAUAUUACGAUAU: the “self-splicing fitness (ln)” value reads like this: (30 °C) -1.79 ± 0.17; (37 °C) -1.84 ± 0.16.
For the sequence GGCUAGCAAUAUUACGAUCC, the “self-splicing fitness (ln)” value (30 °C) worked out at 0.227 ± 0.47.
For the sequence GGCUAGCAAUAUUACGAUGG, the “self-splicing fitness (ln)” value (37 °C) is -2.46 ± 0.23.
Regarding GGCUAGCAAUAUUACGCACG, the “self-splicing fitness (ln)” value by setting is: (30 °C) -0.276 ± 0.093; (37 °C) -0.119 ± 0.1.
For GGCUAGCAAUAUUACGCCCU, for the setting “37 °C”, the “self-splicing fitness (ln)” value was 0.0828 ± 0.36.
Consider GGCUAGCAAUAUUACGCCUA, for which the “self-splicing fitness (ln)” value runs as follows: (30 °C) -0.205 ± 0.23; (37 °C) -1.69 ± 0.3.
As to GGCUAGCAAUAUUACGCCUU, the “self-splicing fitness (ln)” value (37 °C) is -0.73 ± 0.19.
Consider GGCUAGCAAUAUUACGCGGA, for which the “self-splicing fitness (ln)” value was -0.936 ± 0.22 (30 °C) and -0.393 ± 0.22 (37 °C).
For GGCUAGCAAUAUUACGCGUG, in that order: -0.672 ± 0.071 and -1.13 ± 0.083.
As for GGCUAGCAAUAUUACGCUUC, the “self-splicing fitness (ln)” value (30 °C) is -2.51 ± 0.21 and the “self-splicing fitness (ln)” value (37 °C) was -1.61 ± 0.26.
As to GGCUAGCAAUAUUACGCUUG, the “self-splicing fitness (ln)” value reads like this: (30 °C) -3.03 ± 0.19; (37 °C) -2.19 ± 0.19.
Take GGCUAGCAAUAUUACGGACA: the “self-splicing fitness (ln)” value (30 °C) is -0.485 ± 0.091 and the “self-splicing fitness (ln)” value (37 °C) was -0.398 ± 0.098.
GGCUAGCAAUAUUACGGCUG: the “self-splicing fitness (ln)” value runs as follows: (30 °C) 0.0242 ± 0.097; (37 °C) -0.992 ± 0.12.
For GGCUAGCAAUAUUACGUACU, in that order: -0.354 ± 0.077 and 0.312 ± 0.11.
For GGCUAGCAAUAUUACGUAUC, in that order: -0.368 ± 0.098 and -0.254 ± 0.12.
For the sequence GGCUAGCAAUAUUACGUCAG, the “self-splicing fitness (ln)” value (30 °C) was -2.81 ± 0.45.
With GGCUAGCAAUAUUACGUCUU, the “self-splicing fitness (ln)” value is, setting by setting: (30 °C) -0.274 ± 0.075; (37 °C) 0.396 ± 0.088.
For GGCUAGCAAUAUUACGUGAG, in that order: -1.21 ± 0.087 and -0.194 ± 0.092.
For GGCUAGCAAUAUUACGUGGA, in that order: -1.81 ± 0.14 and -0.667 ± 0.12.
For GGCUAGCAAUAUUACGUGUA the same measures were -0.9 ± 0.093 and -0.236 ± 0.095.
On to GGCUAGCAAUAUUACGUUCU, for which the “self-splicing fitness (ln)” value (30 °C) was -0.249 ± 0.082 and the “self-splicing fitness (ln)” value (37 °C) is -0.358 ± 0.1.
For GGGAAGCAAUAUUACGAAGC the same measures were -2.84 ± 0.23 and -1.75 ± 0.34.
Turning to GGGAAGCAAUAUUACGAAUC, the “self-splicing fitness (ln)” value was -0.774 ± 0.11 (30 °C) and -0.499 ± 0.14 (37 °C).
For GGGAAGCAAUAUUACGACAU the same measures were -0.662 ± 0.015 and -0.341 ± 0.034.
For GGGAAGCAAUAUUACGACGA the same measures were -0.787 ± 0.093 and 0.0557 ± 0.11.
For GGGAAGCAAUAUUACGAGGG, in that order: -4.09 ± 0.24 and -2.67 ± 0.19.
Regarding GGGAAGCAAUAUUACGCAUU, the “self-splicing fitness (ln)” value runs as follows: (30 °C) -2.94 ± 0.34; (37 °C) -1.53 ± 0.44.
For GGGAAGCAAUAUUACGCCCG, the “self-splicing fitness (ln)” value (37 °C) turned out to be 0.0331 ± 0.36.
For the sequence GGGAAGCAAUAUUACGCGUU, the “self-splicing fitness (ln)” value (30 °C) was -2.67 ± 0.24 and the “self-splicing fitness (ln)” value (37 °C) is -1.49 ± 0.2.
As for GGGAAGCAAUAUUACGGCAG, the “self-splicing fitness (ln)” value (30 °C) was -2.64 ± 0.34.
Consider GGGAAGCAAUAUUACGGCGA, for which the “self-splicing fitness (ln)” value by setting is: (30 °C) -0.443 ± 0.12; (37 °C) 0.0664 ± 0.12.
For GGGAAGCAAUAUUACGGCGC the same measures were -2.22 ± 0.1 and -1.1 ± 0.053.
For the sequence GGGAAGCAAUAUUACGGCGU, the “self-splicing fitness (ln)” value (30 °C) was -0.0838 ± 0.13 and the “self-splicing fitness (ln)” value (37 °C) is -0.241 ± 0.14.
